Experimental findings from patent US20220135638A1 (Takeda / Millennium, published 2022) are described below.

B1: Compound No. 513 (peptide)
peptide: Y[Aib]EGTFISDYSIALDR[Aib]HQ[Aib]NFVNW[Iva]LAQRPK([PEG3′-γGlu-C18 diacid])SGAPPPS
modifications: ends and bridges not checked
B2: Compound No. 509 (peptide)
peptide: Y[Aib]EGTFISDYSIALDR[Aib]HQ[Aib]NFVNW[Iva]LAQRK([PEG3′-γGlu-C16 diacid])SSGAPPPS
modifications: ends and bridges not checked
B3: Compound No. 525 (peptide)
peptide: Y[Aib]EGTFISDYSIALDR[Aib]HQ[Aib]NFVNW[Iva]LAQRPSSGAK([PEG3′-γGlu-C18 diacid])PPS
modifications: ends and bridges not checked
B4: Compound No. 522 (peptide)
peptide: Y[Aib]EGTFISDYSIALDR[Aib]HQ[Aib]NFVNW[Iva]LAQRPSSGK([PEG3′-γGlu-C18 diacid])PPPS
modifications: ends and bridges not checked
B5: Compound No. 501 (peptide)
peptide: Y[Aib]EGTFISDYSIALDR[Aib]HQ[Aib]NFVNW[Iva]LAQRPSSGAK([PEG3′-PEG3′-γGlu-Ida])PPS
modifications: ends and bridges not checked
B6: Compound No. 505 (peptide)
peptide: Y[Aib]EGTFISDYSIALDR[Aib]HQ[Aib]NFVNW[Iva]LAQRPSSGAPK([PEG3′-PEG3′-γGlu-C20 diacid])PS
modifications: ends and bridges not checked
B7: Compound No. 502 (peptide)
peptide: Y[Aib]EGTFISDYSIALDR[Aib]HQ[Aib]NFVNW[Iva]LAQRPSSGAK([PEG3′-PEG3′-γGlu-C20 diacid])PPS
modifications: ends and bridges not checked
B8: Compound No. 514 (peptide)
peptide: Y[Aib]EGTFISDYSIALDR[Aib]HQ[Aib]NFVNW[Iva]LAQRPK([PEG3′-γGlu-C20 diacid])SGAPPPS
modifications: ends and bridges not checked
B9: Compound No. 528 (peptide)
peptide: Y[Aib]EGTFISDYSIALDR[Aib]HQ[Aib]NFVNW[Iva]LAQRPSSGAPK([PEG3′-γGlu-C18 diacid])PS
modifications: ends and bridges not checked
B10: Compound No. 524 (peptide)
peptide: Y[Aib]EGTFISDYSIALDR[Aib]HQ[Aib]NFVNW[Iva]LAQRPSSGAK([PEG3′-γGlu-C16 diacid])PPS
modifications: ends and bridges not checked
B11: Compound No. 527 (peptide)
peptide: Y[Aib]EGTFISDYSIALDR[Aib]HQ[Aib]NFVNW[Iva]LAQRPSSGAPK([PEG3′-γGlu-C16 diacid])PS
modifications: ends and bridges not checked
B12: Compound No. 500 (peptide)
peptide: Y[Aib]EGTFISDYSIALDR[Aib]HQ[Aib]NFVNW[Iva]LAQRPSSGAK([PEG3′-PEG3′-γGlu-C16 diacid])PPS
modifications: ends and bridges not checked
B13: Compound No. 503 (peptide)
peptide: Y[Aib]EGTFISDYSIALDR[Aib]HQ[Aib]NFVNW[Iva]LAQRPSSGAPK([PEG3′-PEG3′-γGlu-C16 diacid])PS
modifications: ends and bridges not checked
B14: Compound No. 518 (peptide)
peptide: Y[Aib]EGTFISDYSIALDR[Aib]HQ[Aib]NFVNW[Iva]LAQRPSSK([PEG3′-γGlu-C16 diacid])APPPS
modifications: ends and bridges not checked
B15: Compound No. 511 (peptide)
peptide: Y[Aib]EGTFISDYSIALDR[Aib]HQ[Aib]NFVNW[Iva]LAQRK([PEG3′-γGlu-C20 diacid])SSGAPPPS
modifications: ends and bridges not checked
B16: Compound No. 521 (peptide)
peptide: Y[Aib]EGTFISDYSIALDR[Aib]HQ[Aib]NFVNW[Iva]LAQRPSSGK([PEG3′-γGlu-C16 diacid])PPPS
modifications: ends and bridges not checked
B17: Compound No. 512 (peptide)
peptide: Y[Aib]EGTFISDYSIALDR[Aib]HQ[Aib]NFVNW[Iva]LAQRPK([PEG3′-γGlu-C16 diacid])SGAPPPSS
modifications: ends and bridges not checked
B18: Compound No. 526 (peptide)
peptide: Y[Aib]EGTFISDYSIALDR[Aib]HQ[Aib]NFVNW[Iva]LAQRPSSGAK([PEG3′-γGlu-C20 diacid])PPS
modifications: ends and bridges not checked
B19: Compound No. 515 (peptide)
peptide: Y[Aib]EGTFISDYSIALDR[Aib]HQ[Aib]NFVNW[Iva]LAQRPSK([PEG3′-γGlu-C16 diacid])GAPPPS
modifications: ends and bridges not checked
B20: Compound No. 504 (peptide)
peptide: Y[Aib]EGTFISDYSIALDR[Aib]HQ[Aib]NFVNW[Iva]LAQRPSSGAPK([PEG3′-PEG3′-γGlu-Ida])PS
modifications: ends and bridges not checked
B21: Compound No. 510 (peptide)
peptide: Y[Aib]EGTFISDYSIALDR[Aib]HQ[Aib]NFVNW[Iva]LAQRK([PEG3′-γGlu-C18 diacid])SSGAPPPS
modifications: ends and bridges not checked
B22: Compound No. 519 (peptide)
peptide: Y[Aib]EGTFISDYSIALDR[Aib]HQ[Aib]NFVNW[Iva]LAQRPSSK([PEG3′-γGlu-C18 diacid])APPPS
modifications: ends and bridges not checked
B23: Compound No. 520 (peptide)
peptide: Y[Aib]EGTFISDYSIALDR[Aib]HQ[Aib]NFVNW[Iva]LAQRPSSK([PEG3′-γGlu-C20 diacid])APPPS
modifications: ends and bridges not checked
B24: Compound No. 523 (peptide)
peptide: Y[Aib]EGTFISDYSIALDR[Aib]HQ[Aib]NFVNW[Iva]LAQRPSSGK([PEG3′-γGlu-C20 diacid])PPPS
modifications: ends and bridges not checked
B25: Compound No. 516 (peptide)
peptide: Y[Aib]EGTFISDYSIALDR[Aib]HQ[Aib]NFVNW[Iva]LAQRPSK([PEG3′-γGlu-C18 diacid])GAPPPS
modifications: ends and bridges not checked
B26: Compound No. 517 (peptide)
peptide: Y[Aib]EGTFISDYSIALDR[Aib]HQ[Aib]NFVNW[Iva]LAQRPSK([PEG3′-γGlu-C20 diacid])GAPPPS
modifications: ends and bridges not checked

Numbered stars: 1 amine (or outer) side, 2 acyl side, 3 side chain; on linkers, the order of the positions; unused ones are H or OH. Square brackets hold non-standard residues; d marks the D form. Primed or numbered codes have the meaning given here. Side chains are listed from the residue outwards. Ends that are not written are not given here. * marks the point of attachment. C20 diacid = O=C(O)CCCCCCCCCCCCCCCCCCC(=O)*; C18 diacid = O=C(O)CCCCCCCCCCCCCCCCC(=O)*; C16 diacid = O=C(O)CCCCCCCCCCCCCCC(=O)*; γGlu = O=C(O)[C@H](CCC(=O)[*:2])N[*:1]; Iva = CC[C@](C)(N)C(=O)O; PEG3′ = not defined here; Aib = CC(C)(N)C(=O)O

The first test has as its target T1, full-length human GLP-1R (GenBank NM_002062) with an N-terminal FLAG tag on HEK-293T cells (human), P43220.
T1 chain: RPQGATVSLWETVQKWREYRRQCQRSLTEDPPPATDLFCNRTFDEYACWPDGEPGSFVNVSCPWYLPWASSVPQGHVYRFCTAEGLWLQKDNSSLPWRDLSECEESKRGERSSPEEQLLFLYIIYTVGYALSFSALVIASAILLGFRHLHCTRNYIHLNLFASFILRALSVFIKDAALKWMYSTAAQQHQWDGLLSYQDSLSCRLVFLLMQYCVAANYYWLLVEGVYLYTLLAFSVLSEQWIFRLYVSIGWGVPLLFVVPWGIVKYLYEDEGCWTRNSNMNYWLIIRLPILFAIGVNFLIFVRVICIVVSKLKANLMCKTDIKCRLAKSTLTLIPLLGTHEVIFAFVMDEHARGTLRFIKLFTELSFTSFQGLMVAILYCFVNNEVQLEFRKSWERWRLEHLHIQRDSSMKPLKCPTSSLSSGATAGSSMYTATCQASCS
Put plainly: cell-based or functional assay.
Take B1: the GLP EC50 was > 1000 nM.

As for B2, the GLP EC50 is > 1000 nM.

Turning to B3, the GLP EC50 is > 1000 nM.

B4: the GLP EC50 was > 1000 nM.

For B5, the GLP EC50 is > 1000 nM.

Regarding B6, the GLP EC50 is > 1000 nM.

For B7, the GLP EC50 was > 1000 nM.

Consider B8, for which the GLP EC50 was > 1000 nM.

Turning to B9, the GLP EC50 is > 1000 nM.

As to B10, the GLP EC50 was > 1000 nM.

B11 had a GLP EC50 of 479 nM.

For B12, the GLP EC50 was > 1000 nM.

B13: the GLP EC50 was > 1000 nM.

B14: the GLP EC50 is > 1000 nM.

Turning to B15, the GLP EC50 is > 1000 nM.

Turning to B16, the GLP EC50 was > 1000 nM.

B17 displayed a GLP EC50 of 126 nM.

Regarding B18, the GLP EC50 was > 1000 nM.

Consider B19, for which the GLP EC50 was > 1000 nM.

In the case of B20, the GLP EC50 was > 1000 nM.

With B21, the GLP EC50 was > 1000 nM.

With B22, the GLP EC50 was > 1000 nM.

For B23, the GLP EC50 was > 1000 nM.

As to B24, the GLP EC50 is > 1000 nM.

As for B25, the GLP EC50 was > 1000 nM.

For the molecule B26, the GLP EC50 is > 1000 nM.

For another test, the target named is T2, full-length human GIPR (GenBank NM_000164) with an N-terminal FLAG tag on HEK-293T cells (human), P48546.
T2 chain: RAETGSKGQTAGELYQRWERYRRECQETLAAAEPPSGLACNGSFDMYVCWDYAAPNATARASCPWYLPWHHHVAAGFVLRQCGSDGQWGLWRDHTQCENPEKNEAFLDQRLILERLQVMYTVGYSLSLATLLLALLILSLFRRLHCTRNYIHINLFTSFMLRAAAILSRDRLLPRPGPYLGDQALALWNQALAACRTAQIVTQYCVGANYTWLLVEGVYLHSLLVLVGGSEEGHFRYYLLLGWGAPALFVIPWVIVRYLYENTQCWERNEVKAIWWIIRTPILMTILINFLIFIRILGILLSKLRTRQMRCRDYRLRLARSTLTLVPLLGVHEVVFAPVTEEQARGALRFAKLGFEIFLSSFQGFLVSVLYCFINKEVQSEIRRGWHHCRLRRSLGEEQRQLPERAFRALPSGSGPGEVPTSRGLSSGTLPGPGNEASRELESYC
Put plainly: cell-based or functional assay.
B1: the GIP EC50(pM) is 0.5 pM.

Molecule B2 came in with a GIP EC50(pM) of 0.54 pM.

The molecule B3 yielded a GIP EC50(pM) of 0.82 pM.

For the molecule B4, the GIP EC50(pM) was found to be 1.51 pM.

On to B5, for which the GIP EC50(pM) was 0.92 pM.

B6 yielded a GIP EC50(pM) of 2.11 pM.

On to B7, for which the GIP EC50(pM) worked out at 1.78 pM.

B8 displayed a GIP EC50(pM) of 1.14 pM.

In the case of B9, the GIP EC50(pM) came to 0.87 pM.

B10 returned a GIP EC50(pM) of 1.29 pM.

Regarding B11, the GIP EC50(pM) stood at 0.37 pM.

The molecule B12 yielded a GIP EC50(pM) of 0.59 pM.

In turn, B13 displayed a GIP EC50(pM) of 0.49 pM.

Turning to B14, the GIP EC50(pM) is 0.61 pM.

B15 yielded a GIP EC50(pM) of 1.61 pM.

Take B16: the GIP EC50(pM) was 0.9 pM.

For the molecule B17, the GIP EC50(pM) was found to be 0.53 pM.

As for B18, the GIP EC50(pM) came to 1.5 pM.

Consider B19, for which the GIP EC50(pM) is 0.54 pM.

Take B20: the GIP EC50(pM) is 1.08 pM.

Consider B21, for which the GIP EC50(pM) worked out at 0.83 pM.

B22: the GIP EC50(pM) came to 1.26 pM.

In turn, B23 registered a GIP EC50(pM) of 2.68 pM.

Molecule B24 gave a GIP EC50(pM) of 2.98 pM.

As to B25, the GIP EC50(pM) was 1.02 pM.

The molecule B26 displayed a GIP EC50(pM) of 1.99 pM.
